Experimental data: PMC2168087

B1: 6xHis-tagged PDZ1 domain of ZO-1 (aa 19-113) (domain or fragment)
chain: WEQHTVTLHRAPGFGFGIAISGGRDNPHFQSGETSIVISDVLKGGPAEGQLQENDRVAMVNGVSMDNVEHAFAVQQLRKSGKNAKITIRRKKKVQ
B2: 6xHis-tagged PDZ1 domain of ZO-2 (aa 4-100) (domain or fragment)
chain: VIWEQYTVTLQKDSKRGFGIAVSGGRDNPHFENGETSIVISDVLPGGPADGLLQENDRVVMVNGTPMEDVLHSFAVQQLRKSGKIAAIVVKRPRKVQ
B3: 6xHis-tagged PDZ1 domain of ZO-3 (aa 5-96) (domain or fragment)
chain: TIWEQHTATLYKDPRRGFGIAVSGGHDRASGSVVVSDVVPGSPAEGRLRTGDHIVMVNGVSVENVTSAFAIQILKTCTKTANVTVKRPRRVQ

Target: GST fusion protein with the cytoplasmic domain of claudin-1 (UniProt O88551)
Sequence of UniProt O88551 (O88551 whole entry, the tested form may be a part): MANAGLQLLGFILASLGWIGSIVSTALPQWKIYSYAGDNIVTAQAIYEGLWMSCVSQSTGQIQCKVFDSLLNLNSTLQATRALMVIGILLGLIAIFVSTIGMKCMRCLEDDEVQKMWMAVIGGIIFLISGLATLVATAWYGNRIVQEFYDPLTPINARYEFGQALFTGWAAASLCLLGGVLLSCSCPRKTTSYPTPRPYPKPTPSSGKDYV
Assay: pull-down

B1 and B2 are within 1.5-fold of each other in Kd: 13 nM for the first, 11 nM for the second.

B3 was tested, and the Kd was 18 nM.
